Patent US20260069728A1, “MULTI-TARGETING COMPOUND AND USE THEREOF” (Chengdu Shetai Medical Technology Co., Ltd., priority 2023, published 2026)
*1 amine or outer side, *2 acyl side, *3 side chain or, on linkers, in order; H or OH if unused. Where a SMILES comes first, the peptide text is derived from it. Bridges are numbered along the chain shown (N, C = ends). [ ]: non-standard residue; d: D form. The star is where a group is joined. X1 = N#C[C@@H]1CC(F)(F)CN1C(=O)CNC(=O)c1ccnc2ccc(OCCCN3CCN(*)CC3)cc12; DOTA = O=C(O)CN1CCN(CC(=O)O)CCN(CC(=O)*)CCN(CC(=O)O)CC1; 2Nal = N[C@@H](Cc1ccc2ccccc2c1)C(=O)O; Cit = NC(=O)NCCC[C@H](N)C(=O)O; Suc = O=C(CCC(=O)[*:2])[*:1]; AEEA = NCCOCCOCC(=O)O

Legend:
[1] = Competitive experiment of radioligand against endogenous free amino acids (histidine, cysteine); assay type: physicochemical; settings: 37° C., 2 hours
Description: (§1) To an EP tube containing 150 μL of PBS buffer, 150 μL of H2O, and 50 μL of ^68Ga-SDYD01 was added 50 μL of cysteine hydrochloride solution (10 mM) or histidine solution (10 mM). The mixture was vortexed and incubated at 37° C. for 2 hours, after which samples were taken for radio-HPLC analysis.
This study utilized different concentrations of histidine and cysteine solutions to investigate whether histidine (or cysteine) competes with ^68Ga-SDYD01 for metal chelation.
To an EP tube containing 150 μL of PBS buffer, 150 μL of H2O, and 50 μL of ^68Ga-SDYD02 was added 50 μL of cysteine hydrochloride solution (10 mM) or histidine solution (10 mM). The mixture was vortexed and incubated at 37° C. for 2 hours, after which samples were taken for radio-HPLC analysis.
This study utilized different concentrations of histidine and cysteine solutions to investigate whether histidine (or cysteine) competes with ^68Ga-SDYD02 for metal chelation.
as §1, with “^68Ga-SDYD05” for “^68Ga-SDYD01”, “analysis. This study utilized different concentrations of histidine and cysteine solutions to investigate whether histidine (or cysteine) competes with ^68Ga-SDYD05 for metal chelation.” for “analysis.”
as §1, with “^68Ga-SDYD06” for “^68Ga-SDYD01”, “analysis. This study utilized different concentrations of histidine and cysteine solutions to investigate whether histidine (or cysteine) competes with ^68Ga-SDYD06 for metal chelation.” for “analysis.”

[2] = test system: SUM149PT human breast cancer cell line; assay: Cell uptake and inhibition assay, SUM149PT; assay type: cell-based
Description: The cell lines involved in the cell experiments in the test examples include: SUM149PT human breast cancer cell line, HUTU-80 human duodenal adenocarcinoma cell line, and U-118 MG human brain astrocytoma/glioblastoma cell line.
SUM149PT: Complete medium was formulated using DMEM high-glucose medium, 10% FBS, and a penicillin-streptomycin solution. The cells were cultured in a constant temperature incubator at 37° C. with 5% CO2. The culture medium was regularly replaced, and the cells were passaged. The culture medium was generally changed every 2 to 3 days. The growth of the tumor cells was observed daily under a microscope, including monitoring cell growth status, checking for adherence, examining cell morphology for any abnormalities, checking for contamination, and observing medium color for any abnormalities. Cells were passaged when they reached 80-90% confluence.
When cell confluence in the culture flask reached 80%, the cells were digested and centrifuged, and the supernatant was removed. An appropriate amount of medium was added to dilute so that each well contained 500 μL of medium for plating. After thorough mixing by pipetting, the cell suspension was seeded into a 24-well plate at a density of 5×10^5 cells per well. The plate was then placed into the incubator for continued growth. The cells were ready for cellular experiments when they reached 80% confluence.
(1) The cell uptake assay established four incubation time points: 15, 30, 60, and 120 minutes, respectively. For each time point, four groups were set up: non-inhibition group, a first single inhibition group (FAP single inhibition), a second single inhibition group (CXCR4/GRPR/αvβ3 single inhibition), and a dual inhibition group (FAP inhibitor+CXCR4/GRPR/αvβ3 inhibitor). Each group at each time point was set up with 3 triplicate wells.
(2) Cells were plated into a 24-well plate according to the cell plating procedure described above.
(3) The original culture medium was removed from the 24-well plate. Then, 400 μL of 100 mg/mL skimmed milk solution was added to each well for blocking for one hour. After removing the skimmed milk solution, each of the wells was washed three times by adding 400 μL of PBS solution. Subsequently, 146 μL of FBS-free medium was added to each well. Next, the non-inhibition group received 4 μL of cold PBS per well, while the first single inhibition group, the second single inhibition group, and the dual inhibition group received the following additions per well according to Table 3: 2 μL of non-radiolabeled first single inhibitor solution and 2 μL of cold PBS: 2 μL of non-radiolabeled second single inhibitor solution and 2 μL of cold PBS; 2 μL of non-radiolabeled first single inhibitor solution (10 mM) and 2 μL of non-radiolabeled second single inhibitor solution (10 mM). The plate was incubated at room temperature for one hour.
(4) The ^68Ga- and ^177Lu-labeled radioactive ligands were formulated by adding FBS-free medium to achieve a radioligand system concentration of 20 nM. Then, 50 μL of this radioligand system was added to each well. Each group was incubated according to the designated time points: 15, 30, 60, and 120 minutes.
(5) After the incubation was complete, the supernatant was removed, and the wells were washed three times with 400 μL of PBS solution. Then, 200 μL of 1 M NaOH solution was added to each well for cell lysis. […] Each well was then washed once with 400 μL of PBS solution, and this wash solution was also added to the corresponding radioimmunoassay tubes.
(6) The radioactivity in the cells was measured using a γ counter. A bar graph was plotted using GraphPad Prism software. The inhibition rate for each inhibition group was calculated as follows: Inhibition Rate (%)=(1−[Radioactive Count of the Inhibition Group]/[Radioactive Count of the Non-inhibition Group])×100%. […]

## N#C[C@@H]1CC(F)(F)CN1C(=O)CNC(=O)c1ccnc2ccc(OCCCN3CCN(C(=O)CCC(=O)N[C@@H](CCCCNC(=O)CN4CCN(CC(=O)O)CCN(CC(=O)O)CCN(CC(=O)O)CC4)C(=O)NCCOCCOCC(=O)NCCOCCOCC(=O)N[C@@H](CCCNC(=N)N)C(=O)N[C@@H](CCCNC(=N)N)C(=O)N[C@@H](Cc4ccc5ccccc5c4)C(=O)N[C@H]4CSSC[C@@H](C(=O)N[C@@H](CCCNC(=N)N)C(N)=O)NC(=O)[C@H](CCCNC(N)=O)NC(=O)[C@H](CCCNC(=N)N)NC(=O)[C@H](Cc5ccc(O)cc5)NC(=O)[C@@H]5CCCN5C(=O)[C@H](CCCCN)NC(=O)[C@H](CCCCN)NC(=O)[C@H](CCCNC(N)=O)NC(=O)[C@H](Cc5ccc(O)cc5)NC4=O)CC3)cc12 [^68Ga-SDYD01, metal not drawn] ({X1-Suc}-K(DOTA)[AEEA][AEEA]RR[2Nal]CY[Cit]KKPYR[Cit]CR-NH2; disulfide 7-16)
[1]
  competitive chelation in the presence of histidine and cysteine (in words): did not undergo competitive chelation
[1]; cysteine hydrochloride solution (10 mM)
  radiochemical purity after incubation with cysteine: 93%
[1]; histidine solution (10 mM)
  radiochemical purity after incubation with histidine: 93%
[2]; FAPI-04 and T140 as inhibitors
  cell uptake, comparison of non-inhibition, FAP single, CXCR4 single and dual inhibition groups (in words): dual inhibition group exhibited the lowest uptake
[2]; non-inhibition group, 15-120 minutes
  cell uptake over incubation time (in words): slowly increased and reached a plateau from 30 to 120 minutes
